Paper PMC3173608, “Atomic Resolution Insights into Curli Fiber Biogenesis” (Structure(London, England:1993), 2011)
Where “and” joins values, the source holds several entries; their conditions need not be identical. Equal values may be shown once.

Target: the molecule itself
Experiment: SEC + native gel or EMSA

B1: CsgG-6xHis (natural protein)
chain: CLTAPPKEAARPTLMPRAQSYKDLTHLPAPTGKIFVSVYNIQDETGQFKPYPASNFSTAVPQSATAMLVTALKDSRWFIPLERQGLQNLLNERKIIRAAQENGTVAINNRIPLQSLTAANIMVEGSIIGYESNVKSGGVGARYFGIGADTQYQLDQIAVNLRVVNVSTGEILSSVNTSKTILSYEVQAGVFRFIDYQRLLEGEVGYTSNEPVMLCLMSAIETGVIFLINDGIDRGLWDLQNKAERQNDILVKYRHMSVPPES
modifications: C16 becomes the lipidated N terminus of the mature protein (said of CsgG in general)
notes: also called recombinant CsgG-6xHis; protein-detergent complex; not shown: His6, C-terminal, kept
stoichiometry N: 7 protomers and 9 protomers
